Laboratory results reported in PMC10466926 (The Journal of Biological Chemistry, 2023).

Key:
Conditions in all cases: both partners purified
[1] = target: T1, IsdB linker-NEAT2 (Staphylococcus aureus Mu50 (by deposit …)); experiment: SPR
[2] = target: T2, IsdH NEAT3 (Staphylococcus aureus (Mu50 for the …, UniProt Q931P4)); experiment: SPR
T2 construct: also called NEAT3 domain (no linker)

[3] = target: T1, IsdB linker-NEAT2; experiment: ITC
[4] = target: T2, IsdH NEAT3; experiment: SPR; remark: listed apart in the source
[5] = target: T3, IsdH linker-NEAT3 (Staphylococcus aureus Mu50, UniProt Q931P4); experiment: SPR
[6] = target: T2, IsdH NEAT3; experiment: ITC
[7] = target: T3, IsdH linker-NEAT3; experiment: ITC
[8] = target: T3, IsdH linker-NEAT3; experiment: ITC; remark: listed apart in the source
[9] = target: T3, IsdH linker-NEAT3; experiment: SPR; remark: listed apart in the source
[10] = target: T3, IsdH linker-NEAT3; experiment: SPR; remark: listed apart in the source

B1: VHH6 (VHH)
VHH: ELQLVESGGGLVQPGGSLSLSCEVSGFSFDDVDNFIIAWFRQAPGKEREGVSFLRKYDMSTYYAESVKGRFTISSDNARDTVYLQMTNLKPEDTAVYYCALDREGFVFEQGMDFWGKGTQVTVSS
notes: also called WT VHH6; WT; source: E. coli BL21(DE3), pRA2 vector with PelB signal peptide, purified (Ni-NTA, SEC)
Kd [1]: 0.25 nM
koff [1]: 4e-05 s⁻¹
kon [1]: 160000 M⁻¹ s⁻¹
Kd [2]: 638 nM
dH [3]: -24.2 kcal/mol
stoichiometry N [3]: 0.8 mol:mol
Kd [4]: 637 nM
koff [4]: 0.0235 s⁻¹
kon [4]: 37000 M⁻¹ s⁻¹
Kd [5]: 0.53 nM
koff [5]: 4.2e-05 s⁻¹
kon [5]: 81000 M⁻¹ s⁻¹
dH [6]: -11.9 kcal/mol
stoichiometry N [6]: 0.9 mol:mol
dH [7]: -17.1 kcal/mol
stoichiometry N [7]: 1.1 mol:mol

B2: VHH6 F108A (VHH)
VHH: ELQLVESGGGLVQPGGSLSLSCEVSGFSFDDVDNFIIAWFRQAPGKEREGVSFLRKYDMSTYYAESVKGRFTISSDNARDTVYLQMTNLKPEDTAVYYCALDREGFVAEQGMDFWGKGTQVTVSS
notes: source: E. coli BL21(DE3), purified as the WT (Ni-NTA, SEC)
dH [8]: -19.3 kcal/mol
stoichiometry N [8]: 0.97 mol:mol
Kd [9]: 2.6 nM
koff [9]: 0.00049 s⁻¹
kon [9]: 189000 M⁻¹ s⁻¹

B3: VHH6 R55A (VHH)
VHH: ELQLVESGGGLVQPGGSLSLSCEVSGFSFDDVDNFIIAWFRQAPGKEREGVSFLAKYDMSTYYAESVKGRFTISSDNARDTVYLQMTNLKPEDTAVYYCALDREGFVFEQGMDFWGKGTQVTVSS
notes: as for B2
dH [8]: -15.9 kcal/mol
stoichiometry N [8]: 0.94 mol:mol
Kd [9]: 25.4 nM
koff [9]: 0.00855 s⁻¹
kon [9]: 284000 M⁻¹ s⁻¹

B4: VHH6 Y57A (VHH)
VHH: ELQLVESGGGLVQPGGSLSLSCEVSGFSFDDVDNFIIAWFRQAPGKEREGVSFLRKADMSTYYAESVKGRFTISSDNARDTVYLQMTNLKPEDTAVYYCALDREGFVFEQGMDFWGKGTQVTVSS
notes: as for B2
dH [8]: -9.7 kcal/mol
stoichiometry N [8]: 1.03 mol:mol
koff [10]: 144 s⁻¹
Kd [9]: 114 nM
koff [9]: 0.0144 s⁻¹
kon [9]: 126000 M⁻¹ s⁻¹

B5: VHH6 V107A (VHH)
VHH: ELQLVESGGGLVQPGGSLSLSCEVSGFSFDDVDNFIIAWFRQAPGKEREGVSFLRKYDMSTYYAESVKGRFTISSDNARDTVYLQMTNLKPEDTAVYYCALDREGFAFEQGMDFWGKGTQVTVSS
notes: as for B2
dH [8]: -15.9 kcal/mol
stoichiometry N [8]: 0.96 mol:mol
Kd [9]: 9.7 nM
koff [9]: 0.00105 s⁻¹
kon [9]: 109000 M⁻¹ s⁻¹

B6: VHH6 E104A (VHH)
VHH: ELQLVESGGGLVQPGGSLSLSCEVSGFSFDDVDNFIIAWFRQAPGKEREGVSFLRKYDMSTYYAESVKGRFTISSDNARDTVYLQMTNLKPEDTAVYYCALDRAGFVFEQGMDFWGKGTQVTVSS
notes: as for B2
dH [8]: -13.6 kcal/mol
stoichiometry N [8]: 0.99 mol:mol
Kd [9]: 6.4 nM
koff [9]: 0.00142 s⁻¹
kon [9]: 151000 M⁻¹ s⁻¹

B7: VHH35 (VHH)
VHH: QLQLVESGGGLVQPGGSLSLSCEVSGFSFDDVDNFIIAWFRQAPGKEREGVSFLRKYDMSTYYAESVKGRFTISSDNARDTVYLQMTNLKPEDTAVYYCALDREGFVFEQGMDFWGKGTQVTVSS
notes: also called VHH number 35; hit clone 35; source: E. coli BL21(DE3), pRA2 vector with PelB signal peptide, purified (Ni-NTA, SEC)
Kd [4]: 237 nM
koff [4]: 0.00918 s⁻¹
kon [4]: 39000 M⁻¹ s⁻¹
Kd [5]: 0.53 nM
koff [5]: 3.5e-05 s⁻¹
kon [5]: 66000 M⁻¹ s⁻¹
dH [6]: -17 kcal/mol
stoichiometry N [6]: 1.02 mol:mol
dH [7]: -16 kcal/mol
stoichiometry N [7]: 0.98 mol:mol

B8: VHH6 Y62A (VHH)
VHH: ELQLVESGGGLVQPGGSLSLSCEVSGFSFDDVDNFIIAWFRQAPGKEREGVSFLRKYDMSTAYAESVKGRFTISSDNARDTVYLQMTNLKPEDTAVYYCALDREGFVFEQGMDFWGKGTQVTVSS
notes: as for B2
dH [8]: -11.1 kcal/mol
stoichiometry N [8]: 0.93 mol:mol
Kd [9]: 45.4 nM
koff [9]: 0.00207 s⁻¹
kon [9]: 46000 M⁻¹ s⁻¹

B9: VHH6 F106A (VHH)
VHH: ELQLVESGGGLVQPGGSLSLSCEVSGFSFDDVDNFIIAWFRQAPGKEREGVSFLRKYDMSTYYAESVKGRFTISSDNARDTVYLQMTNLKPEDTAVYYCALDREGAVFEQGMDFWGKGTQVTVSS
notes: as for B2
dH [8]: -16.6 kcal/mol
stoichiometry N [8]: 1.01 mol:mol
Kd [9]: 3.1 nM
koff [9]: 0.00031 s⁻¹
kon [9]: 99000 M⁻¹ s⁻¹

B10: VHH6 D33A (VHH)
VHH: ELQLVESGGGLVQPGGSLSLSCEVSGFSFDDVANFIIAWFRQAPGKEREGVSFLRKYDMSTYYAESVKGRFTISSDNARDTVYLQMTNLKPEDTAVYYCALDREGFVFEQGMDFWGKGTQVTVSS
notes: as for B2
dH [8]: -14.7 kcal/mol
stoichiometry N [8]: 1.01 mol:mol
Kd [9]: 2.08 nM
koff [9]: 0.00013 s⁻¹
kon [9]: 62000 M⁻¹ s⁻¹
